The chains are these.
B1: scFv; the commonest letter at each place (parent)
chain 1: EVKLDETGGGLVQPGRPMKLSCVASGFTFSDYWMNWVRQSPEKGLEWVAQIRNKPYNYETYYSDSVKGRFTISRDDSKSSVYLQMNNLRVEDMGIYYCTGSYYGMDYWGQGTSVTVS
chain 2: DVVMTQTPLSLPVSLGDQASISCRSSQSLVHSNGNTYLRWYLQKPGQSPKVLIYKVSNRFSGVPDRFSGSGSGTDFTLKISRVEAEDLGVYFCSQSTHVPWTFGGGTKLEIK

The variants in the data set “fluorescein” derive from B1. The experiment in a line: Kd (Tite-Seq). Conditions: with fluorescein; format: scFv 4-4-20, heavy + light.
The variants in data set [1] derive from B1. The experiment in a line: yeast surface expression (ratio to wild type); higher = more expressed. Conditions: format: scFv 4-4-20, heavy + light.

A word on the Kd: it is the concentration at which binding is half-saturated.

Regarding chain 1 G104S Y107T, in the data set with fluorescein, the Kd was at least 10 µM. For the same variant, the yeast surface expression in data set [1] amounted to 0.831.

In the case of chain 1 Y103T G104W, the Kd in the data set with fluorescein is at least 10 µM. Moreover, the yeast surface expression in data set [1] came to 0.534.

Regarding chain 1 Y102W M105E, the Kd with fluorescein was 5.96 µM. For the same variant, the yeast surface expression in data set [1] amounted to 1.02.

As to chain 1 Y102I, the Kd with fluorescein was 0.00279 µM. In addition, the yeast surface expression in data set [1] is 1.16.

Turning to chain 1 Y102V, in the data set with fluorescein, the Kd was 0.0107 µM. The yeast surface expression in data set [1] is 0.936.

On to chain 1 Y102C, for which the Kd with fluorescein came to 0.00334 µM. Further, the yeast surface expression in data set [1] is 0.924.

As for chain 1 M105T Y107C, the Kd in the data set with fluorescein is at least 10 µM. Moreover, the yeast surface expression in data set [1] amounted to 0.675.

Take chain 1 M34Y W36K: in the data set with fluorescein, the Kd was at least 10 µM. The yeast surface expression in data set [1] stood at 0.113.

In the case of chain 1 S101I M105N, the Kd with fluorescein was at least 10 µM. Further, in data set [1], the yeast surface expression amounted to 0.482.

Regarding chain 1 Y102K M105N, the Kd with fluorescein was 0.02 µM. For the same variant, the yeast surface expression in data set [1] came out at 0.916.

With chain 1 W33Q W36T, the Kd with fluorescein was at least 10 µM. Further, the yeast surface expression in data set [1] was 0.706.

With chain 1 D31H V37Q, the Kd in the data set with fluorescein stood at 0.00128 µM. The yeast surface expression in data set [1] was determined as 0.928.

For chain 1 G100C D106G, the Kd with fluorescein was at least 10 µM. In addition, in data set [1], the yeast surface expression was 0.553.

In the case of chain 1 S101A Y107S, the Kd with fluorescein stood at 0.00175 µM. In addition, the yeast surface expression in data set [1] is 0.854.

For chain 1 G104K D106H, the Kd with fluorescein was at least 10 µM. Also, in data set [1], the yeast surface expression turned out to be 0.594.

Turning to chain 1 F29G S30T N35R, the Kd with fluorescein was at least 10 µM. Also, the yeast surface expression in data set [1] amounted to 0.82.

chain 1 F29A W36H: in the data set with fluorescein, the Kd was at least 10 µM. Also, the yeast surface expression in data set [1] is 0.912.

Take chain 1 S101V G109P: the Kd in the data set with fluorescein was at least 10 µM. Also, in data set [1], the yeast surface expression was determined as 0.223.

As to chain 1 F29H W36C, the dissociation constant Kd in the data set with fluorescein was at least 10 µM. Further, the yeast surface expression in data set [1] worked out at 0.281.

For the variant chain 1 F29Y Y32A, the Kd in the data set with fluorescein was determined as 0.00708 µM. In addition, the yeast surface expression in data set [1] amounted to 1.02.

On to chain 1 Y102G G104L, for which the Kd in the data set with fluorescein is at least 10 µM. For the same variant, the yeast surface expression in data set [1] stood at 0.816.

For the variant chain 1 Y102G G104F, the Kd in the data set with fluorescein is at least 10 µM. Moreover, in data set [1], the yeast surface expression worked out at 0.545.

Regarding chain 1 D106E, in the data set with fluorescein, the Kd amounted to 0.0221 µM. In addition, the yeast surface expression in data set [1] was determined as 1.1.

Regarding chain 1 D106A, in the data set with fluorescein, the equilibrium dissociation constant (Kd) came to 2.96 µM. Moreover, the yeast surface expression in data set [1] was 0.694.

Consider chain 1 Y102R G109L, for which the Kd with fluorescein was at least 10 µM. Besides, the yeast surface expression in data set [1] is 0.279.

chain 1 D106I G109C: in the data set with fluorescein, the Kd was at least 10 µM. In data set [1], the yeast surface expression is 0.203.

chain 1 F29P W36A: the Kd with fluorescein was at least 10 µM. Also, the yeast surface expression in data set [1] stood at 0.456.

Regarding chain 1 D106L W108R G109Y, in the data set with fluorescein, the Kd is at least 10 µM. The yeast surface expression in data set [1] was found to be 0.0998.

As to chain 1 G100T M105G, the Kd in the data set with fluorescein was at least 10 µM. In addition, the yeast surface expression in data set [1] came out at 0.878.

Take chain 1 S30D M34F: in the data set with fluorescein, the Kd stood at 0.00142 µM. For the same variant, the yeast surface expression in data set [1] worked out at 1.22.

In the case of chain 1 Y32V W33N, the Kd with fluorescein is at least 10 µM. In addition, the yeast surface expression in data set [1] amounted to 1.16.

As to chain 1 Y102L W108Q, the Kd with fluorescein is at least 10 µM. The yeast surface expression in data set [1] came out at 0.328.

As to chain 1 S30A D31A V37C, the Kd with fluorescein was found to be 0.00158 µM. In data set [1], the yeast surface expression amounted to 0.739.

Turning to chain 1 M105N G109Q, the Kd with fluorescein is at least 10 µM. Besides, the yeast surface expression in data set [1] turned out to be 0.235.

Take chain 1 G100V W108V: in the data set with fluorescein, the Kd is 0.000846 µM. Also, the yeast surface expression in data set [1] is 0.892.

chain 1 D31L Y32N: in the data set with fluorescein, the Kd was at least 10 µM. Besides, the yeast surface expression in data set [1] amounted to 0.847.

Consider chain 1 D31R W36M V37G, for which the Kd with fluorescein is 0.79 µM. Besides, in data set [1], the yeast surface expression was found to be 3.04.

Take chain 1 Y102Q G104T: the dissociation constant Kd with fluorescein was at least 10 µM. Also, the yeast surface expression in data set [1] was determined as 0.546.

With chain 1 S30Q W33S, the Kd with fluorescein is at least 10 µM. For the same variant, the yeast surface expression in data set [1] is 0.902.

chain 1 F29K M34F: the Kd with fluorescein worked out at 0.0233 µM. In addition, the yeast surface expression in data set [1] came to 0.631.

Turning to chain 1 S30N N35T, the Kd with fluorescein was at least 10 µM. For the same variant, the yeast surface expression in data set [1] came to 0.803.

For chain 1 Y107L G109V, the Kd with fluorescein is at least 10 µM. For the same variant, the yeast surface expression in data set [1] amounted to 0.298.

As for chain 1 D31V W33K, the Kd with fluorescein is at least 10 µM. Also, the yeast surface expression in data set [1] is 0.795.

As for chain 1 D31P W33F, in the data set with fluorescein, the Kd is at least 10 µM. The yeast surface expression in data set [1] is 0.78.

In the case of chain 1 M105V D106Y, the Kd with fluorescein was at least 10 µM. The yeast surface expression in data set [1] is 0.489.

Regarding chain 1 W33R W36Y, the Kd with fluorescein was at least 10 µM. In data set [1], the yeast surface expression was 0.561.

In the case of chain 1 Y32C W36R, the Kd with fluorescein is at least 10 µM. Besides, in data set [1], the yeast surface expression was 0.506.

As for chain 1 G100V G109Y, in the data set with fluorescein, the Kd was at least 10 µM. The yeast surface expression in data set [1] is 0.271.

Take chain 1 D31G Y32L: the Kd with fluorescein was 0.0302 µM. Moreover, in data set [1], the yeast surface expression was found to be 0.645.

Regarding chain 1 Y102V Y107F, the dissociation constant Kd with fluorescein turned out to be 0.00226 µM. Moreover, the yeast surface expression in data set [1] amounted to 0.877.

As for chain 1 G100N D106I, the Kd with fluorescein is at least 10 µM. In addition, the yeast surface expression in data set [1] came to 0.203.

For chain 1 W33R, in the data set with fluorescein, the Kd is at least 10 µM. In addition, the yeast surface expression in data set [1] worked out at 0.877.

Consider chain 1 W33I, for which the Kd in the data set with fluorescein is at least 10 µM. Besides, the yeast surface expression in data set [1] is 0.854.

As to chain 1 W33D, the Kd in the data set with fluorescein was at least 10 µM. Besides, the yeast surface expression in data set [1] stood at 0.986.

Take chain 1 Y102E G109N: the Kd with fluorescein was at least 10 µM. For the same variant, the yeast surface expression in data set [1] turned out to be 0.382.

Turning to chain 1 W36G, in the data set with fluorescein, the Kd is at least 10 µM. The yeast surface expression in data set [1] turned out to be 0.534.

Regarding chain 1 W36R, the Kd with fluorescein is 8.34 µM. Moreover, the yeast surface expression in data set [1] stood at 0.957.

As to chain 1 W36H, the Kd in the data set with fluorescein is at least 10 µM. Further, in data set [1], the yeast surface expression was 0.522.

Source of the values: the FLAb antibody collection (doi:10.7554/elife.23156).
